Drawing on patent US20100316641A1 (US Dept. of Health and Human Services, published 2010), this text covers EC50 for two molecules.

The target of this test is T1, Bal gp120-CD4 (HIV-1 (Bal isolate)).
T1 construct: domain: gp120;domain: two-domain CD4; also called gp120Bal-CD4; panning antigen; not shown: junction or linker between gp120 and CD4 is not described
The test is described as follows: ELISA, antigen coated, purified refolded nAb, anti-His-HRP. Background: An ELISA detects its analyte on a solid surface through an enzyme-linked reagent.

The EC50 is the concentration that produces a half-maximal response. A lower EC50 goes with greater potency.

B1: m1a1 (designed binder)
chain: APELLGGPSVFLFPPKPKDTLMISRTPEVTCVVVDYDYDSYFDFGKFNWYVDGVEVHNAKTKPREEQYNSTYRVVSVLTVLHQDWLNGKEYKCKVSNSDSAASGPIEKTISKAK
notes: also called CH2 clone m1a1; nAb m1a1; not shown: C-terminal His tag used for detection
On to B1, for which the 50% effective concentration (EC50) turned out to be 500 nM. This counts as sub-micromolar.

B2: m1a2 (designed binder)
chain: APELLGGPSVFLFPPKPKDTLMISRTPEVTCVVVDYDYDSYYDGKFNWYVDGVEVHNAKTKPREEQYNSTYRVVSVLTVLHQDWLNGKEYKCKVSNDDYAADGPIEKTISKAK
notes: also called CH2 clone m1a2; nAb m1a2; not shown: C-terminal His tag used for detection
Molecule B2 came in with an EC50 of 500 nM.
